This experiment has as its target chicken type I interleukin-1 receptor (chicken). In words: SPR; BIAcore 3000, 25 °C; chicken IL-1RI (5 μg/ml in 10 mM sodium acetate, pH 5.5) immobilised on a CM5 chip by amine coupling (~370 RU); IL-1β or mutant flowed at 30 μl/min in 10 mM HEPES pH 7.2, 150 mM NaCl, 0.001% Tween-20; 90 s association and dissociation; 1:1 Langmuir fit. For orientation: SPR reads the build-up and loss of mass on a sensor chip optically.
“chicken interleukin-1 beta mutant E118K (ligand)” showed a dissociation constant (Kd) of 0.37 nM.
The substance “chicken interleukin-1 beta mutant T117A (ligand)” returned a dissociation constant (Kd) of 0.23 nM. This Kd is about 1.6-fold lower than that of the substance before.
Under “wild-type chicken interleukin-1 beta (ligand)” stands 0.12 nM.

A word on the Kd: it is the equilibrium constant for the complex coming apart. The low end stands for tighter binding, the high end for weaker binding.

These data come from paper PMC4899739.
